# Results taken from patent US20220251222A1 (Johns Hopkins, published 2022).
# T1: IL-8RB expressed on lentivirally transduced HEK 293T cells (UniProt P25025 1-360, limits assumed)
# T1 construct: whole, on cells; also called IL-8R^+ cells; IL-6Rα^-/IL-8R^+ HEK 293T cells
# T1 sequence (looked up): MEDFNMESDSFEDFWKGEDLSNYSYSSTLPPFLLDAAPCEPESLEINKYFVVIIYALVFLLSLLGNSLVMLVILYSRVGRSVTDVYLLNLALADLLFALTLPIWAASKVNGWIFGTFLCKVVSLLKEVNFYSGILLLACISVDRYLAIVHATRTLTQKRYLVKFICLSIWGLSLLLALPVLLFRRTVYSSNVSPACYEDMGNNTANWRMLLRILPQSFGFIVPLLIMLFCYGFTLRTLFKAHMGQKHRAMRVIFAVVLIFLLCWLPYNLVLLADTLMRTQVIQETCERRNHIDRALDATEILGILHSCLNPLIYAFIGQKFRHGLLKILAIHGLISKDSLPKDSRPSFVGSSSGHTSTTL
# T2: IL-6Rα expressed on lentivirally transduced HEK 293T cells (UniProt P08887 20-468, limits assumed)
# T2 construct: whole, on cells; also called IL-6Rα^+ cells; IL-6Rα^+/IL-8R^- HEK 293T cells
# T2 sequence (looked up): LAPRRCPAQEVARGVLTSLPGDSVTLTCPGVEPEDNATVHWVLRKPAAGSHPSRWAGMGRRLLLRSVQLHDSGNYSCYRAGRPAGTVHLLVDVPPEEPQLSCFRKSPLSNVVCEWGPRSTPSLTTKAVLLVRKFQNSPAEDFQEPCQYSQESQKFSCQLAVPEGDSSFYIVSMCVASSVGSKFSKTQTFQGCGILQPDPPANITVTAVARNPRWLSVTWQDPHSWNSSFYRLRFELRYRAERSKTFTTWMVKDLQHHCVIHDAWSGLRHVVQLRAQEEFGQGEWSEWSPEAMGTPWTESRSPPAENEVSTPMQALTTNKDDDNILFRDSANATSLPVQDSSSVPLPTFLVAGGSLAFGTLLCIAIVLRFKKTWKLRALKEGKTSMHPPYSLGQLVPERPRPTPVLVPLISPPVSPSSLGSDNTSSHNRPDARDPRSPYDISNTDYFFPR
# T3: human IL-6Rα extracellular domain (ECD), residues 89-303 of the mature protein, with C-terminal biotin … (human, UniProt P08887 108-322, biotinylated with BirA ligase on the biotin acceptor peptide)
# T3 construct: range 89-303; The range 89-303 counts on the mature protein, not on the precursor; Any linkers between the ECD, BAP and His tag are not described; also called IL-6Rα ECD; recombinant IL-6Rα
# T3 sequence: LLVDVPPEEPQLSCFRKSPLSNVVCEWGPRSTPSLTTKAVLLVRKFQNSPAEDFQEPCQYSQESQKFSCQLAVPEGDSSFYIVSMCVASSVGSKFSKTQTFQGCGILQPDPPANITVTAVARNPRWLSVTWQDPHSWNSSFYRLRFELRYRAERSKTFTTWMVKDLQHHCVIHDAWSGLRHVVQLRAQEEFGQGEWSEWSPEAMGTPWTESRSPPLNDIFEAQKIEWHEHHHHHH
# Tests used:
# [1] = target: T1, IL-8RB expressed on lentivirally …; experiment: flow cytometry binding titration on IL-6R-/IL-8R+ HEK 293T cells, detected with FITC anti-human IgG1
# Description: (§1) HEK 293T cells were cultured in Dulbecco's modified Eagle's medium (DMEM, Mediatech) supplemented with 10% (Hyclone), 2 mM L-glutamine and 100 U/mL penicillin-streptomycin (Gibco). For surface binding assays, IL-6Rα⁺/IL-8R⁻, IL-6Rα⁻/IL-8R⁺, IL-6Rα⁺/IL-8R⁺, and […] HEK 293T cells were trypsinized for detachment, resuspended in PBSA, and then aliquoted into 96-well plates (1×10⁵ cells per well). Cells were incubated with titrations of various monoclonal or bispecific antibodies for 2 hr at 4° C. with rotation. Cells were then washed and incubated with a 1:50 dilution of fluorescein isothiocyanate (FITC)-conjugated anti-human IgG1 antibody (Sigma-Aldrich, Clone 8c/6-39) in PBSA for 15 min at 4° C. After a final wash, cells were resuspended in PBSA and analyzed on a CytoFLEX flow cytometer (Beckman Coulter). Binding isotherms were fitted to a first-order logistic model and KD values were calculated using GraphPad Prism data analysis software. Mean fluorescence intensity (MFI) of unstimulated cells was subtracted. […]
# (§2) To determine whether engineered bispecific binding agents BS1 and BS2 specifically engage target antigens in a physiologically relevant context, antibody binding to IL-6Rα⁺/IL-8R⁻, IL-6Rα⁻/IL-8R⁺, IL-6Rα⁺/IL-8R⁺, and IL-6Rα⁻/IL-8R⁻ lentivirally transduced HEK 293T cells was measured via flow cytometry. […]
# [2] = target: T2, IL-6Rα expressed on lentivirally …; experiment: flow cytometry binding titration on IL-6R+/IL-8R- HEK 293T cells, detected with FITC anti-human IgG1
# Description: as §1, §2
# [3] = target: T3, human IL-6Rα extracellular domain …; experiment: BLI equilibrium titration, biotinylated IL-6Rα ECD on streptavidin tips; bivalent IgG, BLI on recombinant IL-6Rα
# Description: Biotinylated human IL-6Rα ECD was immobilized to streptavidin-coated tips for analysis on an Octet® Red96 BLI instrument (ForteBio). Less than 5 signal units (nm) of receptor was immobilized to minimize mass transfer effects. Tips were exposed to serial dilutions of the anti-IL-6R antibody tocilizumab, the anti-IL-8R antibody 10H2, BS1, or BS2 in a 96-well plate for 300 s and dissociation was measured for 600 s. Surface regeneration for all interactions was conducted using 15 s exposure to 0.1 M glycine pH 3.0. Experiments were carried out in PBSA (phosphate-buffered saline [PBS] pH 7.3 plus 0.1% bovine serum albumin [BSA, Thermo]) at 25° C. Data was visualized and processed using the Octet® Data Analysis software version 7.1 (ForteBio). Equilibrium titration curve fitting and equilibrium dissociation constant (KD) value determination was implemented in GraphPad Prism software using a first-order logistic model. Experiments were reproduced two times with similar results.
# To confirm functionality of our bispecific agents, antibodies were titrated against recombinant IL-6Rα via BLI. […] Moreover, both tocilizumab-containing engineered bispecific binding agents also bound IL-6Rα (FIG. 5).
# [4] = target: T1, IL-8RB expressed on lentivirally …; experiment: flow cytometry titration on IL-6Rα-/IL-8R+ HEK 293T cells; IL-6Rα-/IL-8R+ 293T cells (FIG. 7B)
# Description: as §1, §2
# [5] = target: T2, IL-6Rα expressed on lentivirally …; experiment: flow cytometry titration on IL-6Rα+/IL-8R- HEK 293T cells; IL-6Rα+/IL-8R- 293T cells (FIG. 7A)
# Description: as §1, §2
Binder,binding result [1],EC50 (read off the curve) [2],Kd [3],Kd [4],Kd [5]
"tocilizumab, recombinant monoclonal hIgG1 (anti-IL-6Rα) (antibody, V domains shown, also called anti-IL-6Rα antibody) VH: EVQLQESGPGLVRPSQTLSLTCTVSGYSITSDHAWSWVRQPPGRGLEWIGYISYSGITTYNPSLKSRVTMLRDTSKNQFSLRLSSVTAADTAVYYCARSLARTTAMDYWGQGSLVTVSS VL: DIQMTQSPSSLSASVGDRVTITCRASQDISSYLNWYQQKPGKAPKLLIYYTSRLHSGVPSRFSGSGSGTDFTFTISSLQPEDIATYYCQQGNTLPYTFGQGTKVEIK",no binding (tested: 1e-6 M),~3 nM,28 nM,,
"BS2 bispecific antibody (scFv-IgG fusion: 10H2 IgG with tocilizumab scFv on the light chains) (bispecific antibody, Human IgG1-based) heavy: not shown light: AGSQAVVTQESALTTSPGETVTLTCRSSTGAVTTSNYANWVQEKPDHLFTGLIGGTNNRPPGVPARFSGSLIGDKAALTITGAQIEDEAIYFCALWYSNHLVFGGGTKLTVLRTVAAPSVFIFPPSDEQLKSGTASVVCLLNNFYPREAKVQWKVDNALQSGNSQESVTEQDSKDSTYSLSSTLTLSKADYEKHKVYACEVTHQGLSSPVTKSFNRGECGGGGSGGGGSEVQLQESGPGLVRPSQTLSLTCTVSGYSITSDHAWSWVRQPPGRGLEWIGYISYSGITTYNPSLKSRVTMLRDTSKNQFSLRLSSVTAADTAVYYCARSLARTTAMDYWGQGSLVTVSSGGGGSGGGGSGGGGSDIQMTQSPSSLSASVGDRVTITCRASQDISSYLNWYQQKPGKAPKLLIYYTSRLHSGVPSRFSGSGSGTDFTFTISSLQPEDIATYYCQQGNTLPYTFGQGTKVEIK",,,,3.5 nM,19 nM
